Source: the supplement of paper PMC10126150
± gives the standard deviation of the averaged measurements.

The sequences below were run on ATP (assay: switch fluorescence ratio, 500 uM ATP over buffer (Cy3 cluster intensity, sum of 5 cycles each) (fold (ratio)); higher = stronger signal-on switching upon ATP binding; sequences stand for … in TCGTCGGCAGCGTCAGATGTGTATAAGAGACAGTTTTTTTTTTTTTTTTTTTTTTTTT…TC). Conditions: aptamer strand: ATP DNA aptamer (quencher-CACCTGGGGGAGTATTGCGGAGGAAGG + anchor), 100 nM annealed; ATP concentration: 500 uM.
Procedure, shortened: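 Cy3-labelled switching-strand clusters on a modified Illumina MiSeq flow-cell were annealed to 100 nM quencher-labelled ATP aptamer, imaged in selection buffer, then imaged after 15 min with 500 uM ATP at 22 °C. Five buffer/ATP cycles ran, with NaOH stripping and re-annealing between them. The fluorescence ratio is summed target-cycle over summed buffer-cycle Cy3 intensity per cluster, averaged per switch-domain sequence. Clusters outside 100-1000 RFU were excluded.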
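Note: ATP exposure 15 min at 22 °C before imaging.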

Sequence	switch fluorescence ratio
TGTGGGATGG	1 ± 0.028
TGTGGGCTGG	1.02 ± 0.012
TGTGGGGCCA	0.96 ± 0.038
TGTGGGGCTG	1.02 ± 0.08
TGTGGGGGAG	1.03 ± 0.035
TGTGGGGGGA	0.983 ± 0.037
TGTGGGGTTG	0.994 ± 0.033
TGTGGGTAAA	1.01 ± 0.042
TGTGGGTCCG	1 ± 0.036
TGTGGTGGAG	0.9617 ± 0.0071
TGTGGTGGTG	0.978 ± 0.049
TGTGGTTGGG	0.989 ± 0.027
TGTGTAAAGG	1.04 ± 0.042
TGTGTAAGGC	1.03 ± 0.038
TGTGTAGTTG	0.9821 ± 0.0042
TGTGTATGGG	1.19 ± 0.28
TGTGTATTCC	1.05 ± 0.037
TGTGTGAGAA	0.997 ± 0.022
TGTGTGCAAT	1.0784 ± 0.001
TGTGTGGCGT	1.003 ± 0.0042
TGTGTGGGTT	1.01 ± 0.035
TGTGTGTATG	0.999 ± 0.036
TGTGTTAAAT	1.04 ± 0.011
TGTGTTGCCT	1.05 ± 0.015
TGTGTTGGGG	0.969 ± 0.024
TGTGTTGTTT	1 ± 0.044

Sequence	switch fluorescence ratio
TGTGTTTTCG	1 ± 0.014
TGTTAAACGC	0.945 ± 0.03
TGTTAAAGGG	1.03 ± 0.024
TGTTAAAGTT	0.9908 ± 0.0045
TGTTAAATTT	1.01 ± 0.045
TGTTAATCTG	0.994 ± 0.021
TGTTAATGTT	1 ± 0.029
TGTTACCGG	1.004 ± 0.0037
TGTTACGGGG	0.98654 ± 0.00045
TGTTACTTAT	1.05 ± 0.016
TGTTAGGGGG	1.01 ± 0.014
TGTTAGGGTG	1.04 ± 0.033
TGTTAGTCTG	1.03 ± 0.032
TGTTAGTTAC	1.03 ± 0.025
TGTTAGTTAT	1.06 ± 0.066
TGTTAGTTGG	1.004 ± 0.0038
TGTTATAATT	1 ± 0.0048
TGTTATAGCC	1.03 ± 0.04
TGTTATATAG	1.01 ± 0.033
TGTTATTGAT	1.02 ± 0.029
TGTTATTGGC	1.08 ± 0.084
TGTTATTTTG	0.989 ± 0.041
TGTTCAGGGA	1.048 ± 0.0073
TGTTCGGGTG	1.05 ± 0.022
TGTTCGTCGT	0.9693 ± 0.0039
TGTTCTACAG	1 ± 0.02

Sequence	switch fluorescence ratio
TGTTCTCAAA	0.98346 ± 0.00079
TGTTCTTTTT	0.993 ± 0.038
TGTTGACAGT	1.01 ± 0.021
TGTTGACTGA	1.02 ± 0.023
TGTTGAGTAT	0.9738 ± 0.0072
TGTTGGACTA	0.9992 ± 0.0065
TGTTGGAGCG	0.969 ± 0.011
TGTTGGAGGA	0.994 ± 0.028
TGTTGGAGGC	0.9713 ± 0.0072
TGTTGGCCGG	0.991 ± 0.026
TGTTGGCTTT	1.06 ± 0.022
TGTTGGGAGA	1 ± 0.025
TGTTGGGGCG	1.02 ± 0.069
TGTTGGGGGG	1.01 ± 0.057
TGTTGGGGGT	0.962 ± 0.034
TGTTGGGGTT	1.01 ± 0.018
TGTTGGGTGC	0.996 ± 0.037
TGTTGGTGTC	0.987 ± 0.07
TGTTGGTTCG	0.97 ± 0.062
TGTTGTAATG	0.9974 ± 0.0033
TGTTGTATGC	0.9617 ± 0.0042
TGTTGTATTG	0.9761 ± 0.0066
TGTTGTGGGA	0.979 ± 0.019
TGTTGTGTAG	0.977 ± 0.021
TGTTGTTTGC	0.982 ± 0.014
TGTTGTTTGG	1 ± 0.063

Sequence	switch fluorescence ratio
TGTTTAAAAT	1.02 ± 0.046
TGTTTAAATG	1.01 ± 0.026
TGTTTAAGTT	1.02 ± 0.023
TGTTTAATGT	1.01 ± 0.019
TGTTTACAGC	0.997 ± 0.027
TGTTTATATC	0.9856 ± 0.0076
TGTTTATGTT	0.9975 ± 0.0064
TGTTTCGGAA	1.02 ± 0.038
TGTTTCTCGA	0.9619 ± 0.0041
TGTTTCTCGT	1.01 ± 0.015
TGTTTGAAGT	0.989 ± 0.023
TGTTTGGAGG	0.985 ± 0.022
TGTTTGGTGG	0.968 ± 0.026
TGTTTGTCTT	1 ± 0.069
TGTTTGTGTA	1.03 ± 0.022
TGTTTGTTGT	1.03 ± 0.063
TGTTTTAATG	0.988 ± 0.011
TGTTTTCAGT	0.975 ± 0.02
TGTTTTCTAG	0.99 ± 0.022
TGTTTTGGGT	0.985 ± 0.039
TGTTTTGTTG	0.99 ± 0.016
TGTTTTTATA	1.005 ± 0.0091
TGTTTTTGAG	0.9888 ± 0.0034
TGTTTTTGTA	1.07 ± 0.13
TTAAAAAAGG	1.01 ± 0.087
TTAAAAAGAT	1.04 ± 0.051

Sequence	switch fluorescence ratio
TTAAAAAGGA	0.986 ± 0.016
TTAAAAAGGT	1 ± 0.021
TTAAAAATCA	0.984 ± 0.025
TTAAAAATGA	1.02 ± 0.021
TTAAAAATGC	1.02 ± 0.011
TTAAAAGAGA	1.04 ± 0.0028
TTAAAAGCAG	1.016 ± 0.0045
TTAAAAGCTT	1.05 ± 0.024
TTAAAAGGAA	1.004 ± 0.0034
TTAAAAGGTT	1.01 ± 0.029
TTAAAATGGG	1.01 ± 0.043
TTAAAATGTC	0.992 ± 0.014
TTAAACAAGG	1.01 ± 0.012
TTAAAGAATT	1.003 ± 0.0084
TTAAAGACGG	1.06 ± 0.11
TTAAAGAGAA	1 ± 0.013
TTAAAGATAT	1.23 ± 0.32
TTAAAGCAGT	1.56 ± 0.47
TTAAAGCTTA	1.02 ± 0.04
TTAAAGGGCG	0.976 ± 0.046
TTAAAGTCGT	1.01 ± 0.026
TTAAAGTGCC	1.01 ± 0.0072
TTAAATAGCG	0.982 ± 0.036
TTAAATTTCG	1.003 ± 0.0035
TTAACACTCC	1.2 ± 0.02
TTAACATGTG	0.9593 ± 0.0034

Sequence	switch fluorescence ratio
TTAACATGTT	0.996 ± 0.022
TTAACATTAC	1.38 ± 0.11
TTAACCGGGA	1.02 ± 0.059
TTAACTGCTT	0.9894 ± 0.0088
TTAAGAACGG	1.03 ± 0.075
TTAAGAAG	0.996 ± 0.015
TTAAGAATTT	0.991 ± 0.031
TTAAGACTGT	1.01 ± 0.037
TTAAGACTTG	1 ± 0.012
TTAAGATGGG	0.996 ± 0.025
TTAAGCACTT	1.19 ± 0.062
TTAAGCCAGG	1.16 ± 0.14
TTAAGCCTGT	0.969 ± 0.021
TTAAGCGTAG	1.01 ± 0.013
TTAAGCTAAT	1.42 ± 0.5
TTAAGCTCGC	0.986 ± 0.045
TTAAGCTCGG	0.989 ± 0.037
TTAAGCTGGT	0.985 ± 0.022
TTAAGCTTGA	1.015 ± 0.0062
TTAAGGAGTG	0.95 ± 0.0099
TTAAGGGAAC	0.9966 ± 0.0052
TTAAGGGAGG	0.992 ± 0.03
TTAAGGGCAG	1.01 ± 0.03
